We go through one substance from PMC8410055.

The target in the assay is SARS-CoV-2 spike protein expressed on transfected HEK293T cells (UniProt P0DTC2). In words: flow cytometry on cells.

In the case of “L-SIGN/Fc: extracellular domain of L-SIGN (amino acids 78–399) fused to the human IgG2 Fc domain (from UniProt Q9H2X3) EPN>QPD”, the response (% Fc binding (positive population)) was found to be 1.58.
